Data on six molecules can be found in patent US20130045219A1 (UCB, published 2013).

The target in assay [1] is T1, CD154 expressed on D1.1 Jurkat cells (UniProt P29965 1-261, limits assumed).
T1 construct: whole, on cells; D1.1 is a human Jurkat subclone; also called CD154-expressing D1.1 cells; CD40L
T1 sequence (looked up): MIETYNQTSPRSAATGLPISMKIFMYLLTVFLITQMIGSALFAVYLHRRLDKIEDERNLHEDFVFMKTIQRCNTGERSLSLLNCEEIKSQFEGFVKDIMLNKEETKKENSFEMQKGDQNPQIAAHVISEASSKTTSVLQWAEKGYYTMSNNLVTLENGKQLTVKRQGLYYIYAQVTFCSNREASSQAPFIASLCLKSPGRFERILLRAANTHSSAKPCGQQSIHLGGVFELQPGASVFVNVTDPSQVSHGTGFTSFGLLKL
Kind of assay: flow cytometry: inhibition of the binding of hCD40-mFc-PE to CD154-expressing D1.1 Jurkat cells by serially diluted antibody (Example 5). On the procedure:
A flow cytometry-based assay was used to assess the binding of labeled CD40 to CD154-expressing D1.1 cells. D1.1 Jurkat cells (American Type Culture Collection) were maintained in RPMI 1640 medium (Gibco, 31870-025)) containing 10% (v/v) fetal calf serum (FCS), 2 mM glutamine (Invitrogen, 23030024), 1 mM sodium pyruvate (Invitrogen, 11360-039), 1% (v/v) D-(+)-glucose (Sigma, G8769) & 10 mM HEPES (Sigma, H0887). At time of assay, 100,000 D1.1 cells were incubated in 100 μL RPMI 1640 medium+10% FCS, in the presence or absence of serially diluted anti-CD154 antibody for 15 minutes at room temperature. 5 μL of a 1:75 dilution of hCD40-mFc-PE (Alexis Corp, ANC-504-050) was then added and incubated for a further 30 minutes at room temperature. After washing twice in phosphate-buffered saline (PBS) containing 1% (w/v) bovine serum albumin (BSA fraction V, Serologicals Proteins Inc, 81-068-5) and 0.02% (w/v) sodium azide (BDH, 103692K), cells were resuspended in 200 μL PBS/1% BSA/0.02% sodium azide and flow cytometry performed on a Becton Dickinson FACScan. The values for geometric mean fluorescence (FL2) were assessed in all cases.

Assay [2] deals with T1, CD154 expressed on D1.1 Jurkat cells. Kind of assay: cell-based or functional assay.
Assay [3] addresses T2, soluble human CD154 protein (extracellular domain) (human, UniProt P29965 116-261).
T2 construct: also called sCD154; recombinant extracellular domain of human CD154
T2 sequence: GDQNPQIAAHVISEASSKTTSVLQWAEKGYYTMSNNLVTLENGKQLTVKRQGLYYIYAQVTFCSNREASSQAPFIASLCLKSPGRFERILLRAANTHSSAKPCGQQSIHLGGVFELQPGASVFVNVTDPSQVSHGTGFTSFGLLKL
In words: Biacore (SPR): antibody or fragment captured on immobilized anti-human IgG (Fc- or Fab'-specific) F(ab')2, recombinant extracellular domain of human CD154 titrated over it (Example 4). As for the experimental part:
Catalogue Number: BR-1001-88, Biacore AB, Uppsala, Sweden. Buffer stored at 4° C. Immobilization buffer is Acetate 5.0 (being 10 mM sodium acetate pH 5.0). Catalogue number: BR-1003-51, Biacore AB, Uppsala, Sweden. Buffer stored at 4° C. Ligand capture: Affinipure F(ab′)₂ fragment goat anti-human IgG, Fab′ fragment specific (Catalogue number: 109-006-097) or Fc fragment specific (Catalogue number: 109-006-098), Jackson ImmunoResearch Inc (Pennsylvania, USA). Reagents stored at 4° C. […] Analyte: Recombinant extracellular domain of human CD154. Material was prepared at 2 mg/mL (40 μM) in phosphate-buffered saline, stored at 4° C., and diluted in HBE-EP running buffer for the assays. […] Regeneration Solution: 40 mM HCl prepared by dilution with distilled water from an 11.6 M stock solution (BDH, Poole, England. Catalogue number: 101254H). 5 mM NaOH prepared by dilution with distilled water from a 50 mM stock solution. Catalogue number: BR-1003-58, Biacore AB, Uppsala, Sweden. Assay Method: BIA (Biamolecular Interaction Analysis) was performed using a Biacore® 3000 (Biacore AB). Affinipure F(ab′)₂ fragment goat anti-human IgG, Fc- or Fab′-fragment specific (Jackson ImmunoResearch) were immobilized on a CM5 Sensor Chip via amine coupling chemistry to a capture level of ≈6000 response units (RUs). HBS-EP buffer (10 mM HEPES pH 7.4, 0.15 M NaCl, 3 mM EDTA, 0.005% Surfactant P20, Biacore AB) was used as the running buffer with a flow rate of 10 μl/min. Anti-CD154 antibodies or Fab fragments were used at concentrations such that, once captured by the immobilized anti-human IgG-Fc (or anti-human IgG Fab′) surface, gave a signal of ≈200 RUs. Human CD154 was titrated over the captured antibody, at various concentrations. 90 μL of CD154 was injected over the surface (association phase), followed by a 240 second dissociation phase, all at a flow rate of 30 μl/min. […] Background subtraction binding curves were analyzed using the BIAevaluation software (version 3.2) following standard procedures. Kinetic parameters were determined from the fitting algorithm.

Assay [4] concerns the target T1, CD154 expressed on D1.1 Jurkat cells. In words: flow cytometry competition binding assay: serially diluted antibody against biotinylated 342 Fab on CD154-expressing D1.1 Jurkat cells, streptavidin-R-phycoerythrin detection (Example 6). As for the experimental part:
A flow cytometry-based assay was used to assess the binding of anti-CD154 antibody to CD154-expressing D1.1 cells. D1.1 Jurkat cells (American Type Culture Collection) were maintained in RPMI 1640 medium (Gibco, 31870-025) containing 10% (v/v) fetal calf serum (FCS), 2 mM glutamine (BioWhittaker, 17-605E) and […] (Mediatech, 30002107). […] The cells were washed three times in FACS buffer with centrifugation at 290×g for 3 minutes in between washes. A 1:500 dilution of streptavadin-R-phycoerythrin conjugate (Jackson Immunoresearch, 016-110-084) in […] FACS buffer was added and the cells were incubated for one hour at 4° C. The cells were washed once and fixed in PBS with 3% formaldehyde at room temperature for 10 minutes. The cells were resuspended in FACS buffer and run on a FacsCalibur (BD). The values for geometric mean fluorescence (FL2) were assessed in all cases.

B1: 342 Di-Fab' (other)
heavy chain (Fab'): EVQLVESGGGLVQPGGSLRLSCAVSGFSSTNYHVHWVRQAPGKGLEWMGVIWGDGDTSYNSVLKSRFTISRDTSKNTVYLQMNSLRAEDTAVYYCARQLTHYYVLAAWGQGTLVTVSSASTKGPSVFPLAPSSKSTSGGTAALGCLVKDYFPEPVTVSWNSGALTSGVHTFPAVLQSSGLYSLSSVVTVPSSSLGTQTYICNVNHKPSNTKVDKKVEPKSCDKTHTCAA
light chain: DIQMTQSPSSLSASVGDRVTITCRASEDLYYNLAWYQRKPGKAPKLLIYDTYRLADGVPSRFSGSGSGTDYTLTISSLQPEDFASYYCQQYYKFPFTFGQGTKVEIKRTVAAPSVFIFPPSDEQLKSGTASVVCLLNNFYPREAKVQWKVDNALQSGNSQESVTEQDSKDSTYSLSSTLTLSKADYEKHKVYACEVTHQGLSSPVTKSFNRGEC
modifications: the two Fab' are cross-linked at the hinge; the linker is not described for this molecule
With B1, in assay [1], the IC50 stood at 0.009 µg/mL. Also, the “IC50 of inhibition of ICAM-1 (CD54) upregulation on CD40-expressing Ramos B cells co-cultured with CD154-expressing D1.1 Jurkat cells” value in assay [2] came to 0.022 µg/mL.

B2: 342 Tri-Fab'-PEG (other)
heavy chain (Fab'): EVQLVESGGGLVQPGGSLRLSCAVSGFSSTNYHVHWVRQAPGKGLEWMGVIWGDGDTSYNSVLKSRFTISRDTSKNTVYLQMNSLRAEDTAVYYCARQLTHYYVLAAWGQGTLVTVSSASTKGPSVFPLAPSSKSTSGGTAALGCLVKDYFPEPVTVSWNSGALTSGVHTFPAVLQSSGLYSLSSVVTVPSSSLGTQTYICNVNHKPSNTKVDKKVEPKSCDKTHTCAA
light chain: DIQMTQSPSSLSASVGDRVTITCRASEDLYYNLAWYQRKPGKAPKLLIYDTYRLADGVPSRFSGSGSGTDYTLTISSLQPEDFASYYCQQYYKFPFTFGQGTKVEIKRTVAAPSVFIFPPSDEQLKSGTASVVCLLNNFYPREAKVQWKVDNALQSGNSQESVTEQDSKDSTYSLSSTLTLSKADYEKHKVYACEVTHQGLSSPVTKSFNRGEC
modifications: the three Fab' are cross-linked and PEGylated; the chemistry is not described
B2 registered an IC50 in assay [1] of 0.008 µg/mL. Besides, the “IC50 of inhibition of ICAM-1 (CD54) upregulation on CD40-expressing Ramos B cells co-cultured with CD154-expressing D1.1 Jurkat cells” value in assay [2] came to 0.036 µg/mL.

B3: 342 Tri-Fab' (other)
heavy chain (Fab'): EVQLVESGGGLVQPGGSLRLSCAVSGFSSTNYHVHWVRQAPGKGLEWMGVIWGDGDTSYNSVLKSRFTISRDTSKNTVYLQMNSLRAEDTAVYYCARQLTHYYVLAAWGQGTLVTVSSASTKGPSVFPLAPSSKSTSGGTAALGCLVKDYFPEPVTVSWNSGALTSGVHTFPAVLQSSGLYSLSSVVTVPSSSLGTQTYICNVNHKPSNTKVDKKVEPKSCDKTHTCAA
light chain: DIQMTQSPSSLSASVGDRVTITCRASEDLYYNLAWYQRKPGKAPKLLIYDTYRLADGVPSRFSGSGSGTDYTLTISSLQPEDFASYYCQQYYKFPFTFGQGTKVEIKRTVAAPSVFIFPPSDEQLKSGTASVVCLLNNFYPREAKVQWKVDNALQSGNSQESVTEQDSKDSTYSLSSTLTLSKADYEKHKVYACEVTHQGLSSPVTKSFNRGEC
modifications: the three Fab' are cross-linked at the hinge; the linker is not described
For B3, the IC50 in assay [1] came to 0.009 µg/mL. The “IC50 of inhibition of ICAM-1 (CD54) upregulation on CD40-expressing Ramos B cells co-cultured with CD154-expressing D1.1 Jurkat cells” value in assay [2] stood at 0.031 µg/mL.

B4: 342 Di-Fab'-PEG (other)
heavy chain (Fab'): EVQLVESGGGLVQPGGSLRLSCAVSGFSSTNYHVHWVRQAPGKGLEWMGVIWGDGDTSYNSVLKSRFTISRDTSKNTVYLQMNSLRAEDTAVYYCARQLTHYYVLAAWGQGTLVTVSSASTKGPSVFPLAPSSKSTSGGTAALGCLVKDYFPEPVTVSWNSGALTSGVHTFPAVLQSSGLYSLSSVVTVPSSSLGTQTYICNVNHKPSNTKVDKKVEPKSCDKTHTCAA
light chain: DIQMTQSPSSLSASVGDRVTITCRASEDLYYNLAWYQRKPGKAPKLLIYDTYRLADGVPSRFSGSGSGTDYTLTISSLQPEDFASYYCQQYYKFPFTFGQGTKVEIKRTVAAPSVFIFPPSDEQLKSGTASVVCLLNNFYPREAKVQWKVDNALQSGNSQESVTEQDSKDSTYSLSSTLTLSKADYEKHKVYACEVTHQGLSSPVTKSFNRGEC
modifications: the two Fab' are cross-linked and PEGylated; paragraph 96 describes DFM-PEG as two Fab' cross-linked with a PEGylated dimaleimide bridge
Turning to B4, in assay [3], the Kd was determined as 0.045 nM. For the same molecule, the half-inhibitory concentration (IC50) in assay [4] stood at 0.026 nM; in assay [1], 0.032 µg/mL. Moreover, the “IC50 of inhibition of ICAM-1 (CD54) upregulation on CD40-expressing Ramos B cells co-cultured with CD154-expressing D1.1 Jurkat cells” value in assay [2] was 0.058 µg/mL.

B5: 342 Fab'-PEG (Fab, V domains shown)
VH: EVQLVESGGGLVQPGGSLRLSCAVSGFSSTNYHVHWVRQAPGKGLEWMGVIWGDGDTSYNSVLKSRFTISRDTSKNTVYLQMNSLRAEDTAVYYCARQLTHYYVLAAWGQGTLVTVSS
VL: DIQMTQSPSSLSASVGDRVTITCRASEDLYYNLAWYQRKPGKAPKLLIYDTYRLADGVPSRFSGSGSGTDYTLTISSLQPEDFASYYCQQYYKFPFTFGQGTKVEIKR
modifications: PEG-maleimide on the single cysteine at the hinge
Take B5: in assay [3], the Kd is 0.05 nM. The IC50 in assay [4] was 0.113 nM; in assay [1], 0.035 µg/mL. In addition, the “IC50 of inhibition of ICAM-1 (CD54) upregulation on CD40-expressing Ramos B cells co-cultured with CD154-expressing D1.1 Jurkat cells” value in assay [2] was determined as 0.127 µg/mL.

B6: 342 aglycosyl IgG4 (antibody, V domains shown)
VH: EVQLVESGGGLVQPGGSLRLSCAVSGFSSTNYHVHWVRQAPGKGLEWMGVIWGDGDTSYNSVLKSRFTISRDTSKNTVYLQMNSLRAEDTAVYYCARQLTHYYVLAAWGQGTLVTVSS
VL: DIQMTQSPSSLSASVGDRVTITCRASEDLYYNLAWYQRKPGKAPKLLIYDTYRLADGVPSRFSGSGSGTDYTLTISSLQPEDFASYYCQQYYKFPFTFGQGTKVEIKR
modifications: S228P and T299A (Kabat EU) are contained in SEQ ID NO: 72; not N-glycosylated
notes: also called aglycosylated hu342; hu342 aglyP-huIgG4
For B6, the IC50 is 0.035 nM in assay [4] and 0.025 µg/mL in assay [1]. For the same molecule, the “IC50 of inhibition of ICAM-1 (CD54) upregulation on CD40-expressing Ramos B cells co-cultured with CD154-expressing D1.1 Jurkat cells” value in assay [2] came to 0.048 µg/mL.
